How the values were obtained:
[1] = target: SpRadA helicase (Streptococcus pneumoniae RadA), full length (Streptococcus pneumoniae) (UniProt Q8DRP0); test: negative-stain electron microscopy
[2] = target: SpRadA K101A point mutant (Streptococcus pneumoniae) (UniProt Q8DRP0); test: negative-stain electron microscopy
SpRecA = SpRecA (Streptococcus pneumoniae, UniProt P0A452 1-388); test: fluorescence anisotropy

SpRadA helicase (Streptococcus pneumoniae RadA), full length (from UniProt Q8DRP0 1-420) (enzyme)
stoichiometry N [1]: 6

SpRadA K101A point mutant (from UniProt Q8DRP0 1-420) (enzyme)
stoichiometry N [2]: 6

B1: T65 (polydT 65-mer) (ssDNA)
DNA: TTTTTTTTTTTTTTTTTTTTTTTTTTTTTTTTTTTTTTTTTTTTTTTTTTTTTTTTTTTTTTTTT
binding result (SpRecA): binds

Reference: article PMC10085707
